The target of the data set is T1, His6-Sll0649 (OmpR family response regulator) (Synechocystis sp. PCC 6803) (UniProt P72948).
T1 sequence: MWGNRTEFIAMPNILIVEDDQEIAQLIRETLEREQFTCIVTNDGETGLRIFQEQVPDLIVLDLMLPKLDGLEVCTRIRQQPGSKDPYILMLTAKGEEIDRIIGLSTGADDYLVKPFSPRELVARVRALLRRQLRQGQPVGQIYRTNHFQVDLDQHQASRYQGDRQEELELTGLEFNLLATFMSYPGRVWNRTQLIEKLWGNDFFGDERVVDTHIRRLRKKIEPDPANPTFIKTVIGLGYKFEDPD
The data set is described as follows: EMSA. Particulars: EMSA: 20 mM Tris-base pH 7.9, 1 mM DTT, 10 mM MgCl2, 0.2 mg/mL BSA, 5% glycerol, 1 mg/mL poly(dI-dC), about 10 ng probe, 20 min at 25 C, 6% native PAGE.

Turning to “AGCCAGTGGCGATAAGTCAGATCCTAGACCCCGACTTTTTTCCAAAATCAGAATAAATACAAAAAAAAGCCCTCTAAAACAATGACCTTGTCCTGAAAAACTGACACAAAAATTTCATACCGTCGTCATAGCCCTGTCATACTCGTCCCCTACATTAATAAATGTCAGCCCAAGCCGTTTCTTATCGCCACTGGCT (double strand) [Pslr1204 EMSA probe]”, the binding result was “no binding”.

These data come from paper PMC5559466.
